Test results reported in patent US12194076B2, “Methods and compositions for treating myelofibrosis” (Acceleron Pharma Inc., priority 2016, dated 2025).

Key:
[1] = system: myelofibrosis patients with splenomegaly; settings: cited from earlier work
GDF11 [2] = molecular target: T1, GDF11 (Homo sapiens, UniProt O95390); assay: Biacore assay, receptor captured with anti-hFc antibody, GDF11 injected; assay type: binding; settings: for GDF11 binding, in words: cell-free Biacore assay; for Koff (1/s), GDF11: receptor captured via anti-hFc antibody
T1 sequence (O95390 299-407): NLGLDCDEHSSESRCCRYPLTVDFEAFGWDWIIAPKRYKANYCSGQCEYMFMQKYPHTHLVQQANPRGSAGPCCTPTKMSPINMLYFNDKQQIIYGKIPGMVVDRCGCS
Method: (§1) Binding of certain ActRIIB-Fc proteins and GDF traps to ligands was tested in a Biacore™ assay.
(§2) The ActRIIB-Fc variants or wild-type protein were captured onto the system using an anti-hFc antibody. Ligands were injected and flowed over the captured receptor proteins.

GDF8 = molecular target: T2, GDF8 (Homo sapiens, UniProt O14793); assay: Biacore assay, receptor captured with anti-hFc antibody, GDF8 injected; assay type: binding; settings: for myostatin binding, in words: cell-free Biacore assay; for Koff (1/s), GDF8: receptor captured via anti-hFc antibody
T2 sequence (O14793 267-375): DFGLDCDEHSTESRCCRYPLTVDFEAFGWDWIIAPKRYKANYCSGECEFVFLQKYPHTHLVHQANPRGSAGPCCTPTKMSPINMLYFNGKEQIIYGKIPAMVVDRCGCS
Method: as §1, §2

Activin A [3] = molecular target: T3, Activin A (Homo sapiens, UniProt P08476); assay: Biacore assay, receptor captured with anti-hFc antibody, activin A injected; assay type: binding; settings: for binding to activin A, in words: cell-free Biacore assay; for KD (M), Activin A / Koff (1/s), Activin A / Kon (1/Ms), Activin A: receptor captured via anti-hFc antibody
T3 sequence (P08476 311-426): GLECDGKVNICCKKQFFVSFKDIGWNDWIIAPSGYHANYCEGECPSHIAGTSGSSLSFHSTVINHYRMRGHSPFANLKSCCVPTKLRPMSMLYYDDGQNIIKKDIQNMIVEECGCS
Method: as §1, §2

GDF11 [4] = molecular target: T1, GDF11; assay: A-204 reporter gene assay, inhibition of GDF-11 signaling; assay type: cell-based; parameters: host or cells: added to A-204 cells (human rhabdomyosarcoma)
From the text: (§3) An A-204 reporter gene assay was used to evaluate the effects of ActRIIB-Fc proteins and GDF traps on signaling by GDF-11 and activin A. Cell line: human rhabdomyosarcoma (derived from muscle). Reporter vector: pGL3(CAGA)12 (described in Dennler et al, 1998, EMBO 17: 3091-3100). The CAGA12 motif is present in TGF-beta responsive genes (e.g., PAI-1 gene), so this vector is of general use for factors signaling through SMAD2 and 3.
(§4) Day 1: Split A-204 cells into 48-well plate.
(§5) Day 2: A-204 cells transfected with 10 ug pGL3(CAGA)12 or pGL3(CAGA)12(10 ug)+pRLCMV (1 μg) and Fugene.
(§6) Day 3: Add factors (diluted into medium+0.1% BSA). Inhibitors need to be preincubated with factors for 1 hr before adding to cells. Six hrs later, cells were rinsed with PBS and lysed.
(§7) This is followed by a luciferase assay.
(§8) Activity of ActRIIB-Fc proteins and GDF traps was tested in a cell-based assay as described above. Some variants were tested in different C-terminal truncation constructs. As discussed above, truncations of five or fifteen amino acids caused reduction in activity.

Activin A [5] = molecular target: T3, Activin A; assay: A-204 reporter gene assay, inhibition of activin A signaling; assay type: cell-based; parameters: host or cells: added to A-204 cells (human rhabdomyosarcoma)
From the text: as §3, §4, §5, §6, §7, §8

Koff (1/s), GDF11 (GDF11 [2]) [s⁻¹] | Koff (1/s), GDF8 (GDF8) [s⁻¹] | Koff (1/s), Activin A (Activin A [3]) [s⁻¹] | Kon (1/Ms), Activin A (Activin A [3]) [M⁻¹ s⁻¹] | Molecule | further results
0.000439 | 0.00083 | – | – | ActRIIB(L79D 20-134)-hFc: GDF trap: ActRIIB amino acids 20-134 with L79D substitution fused to human Fc, SEQ ID NO: 29 (protein) GRGEAETRECIYYNANWELERTNQSGLERCEGEQDKRLHCYASWRNSSGTIELVKKGCWDDDFNCYDRQECVATEENPQVYFCCCEGNFCNERFTHLPEAGGPEVTYEPPPTAPTGGGTHTCPPCPAPELLGGPSVFLFPPKPKDTLMISRTPEVTCVVVDVSHEDPEVKFNWYVDGVEVHNAKTKPREEQYNSTYRVVSVLTVLHQDWLNGKEYKCKVSNKALPVPIEKTISKAKGQPREPQVYTLPPSREEMTKNQVSLTCLVKGFYPSDIAVEWESNGQPENNYKTTPPVLDSDGSFFLYSKLTVDKSRWQQGNVFSCSVMHEALHNHYTQKSLSLSPGK | GDF11 binding, in words (GDF11 [2]): retains; myostatin binding, in words (GDF8): retains; binding to activin A, in words (Activin A [3]): markedly decreased (non-quantifiable); KD (M), Activin A (Activin A [3]): Low binding; inhibition of GDF-11 activity, in words (GDF11 [4]): almost wild-type; inhibition of activin A activity, in words (Activin A [5]): substantial loss
2.41e-05 | 4.71e-05 | 0.000325 | 6.82e+06 | ActRIIB(R64K 20-134)-hFc: ActRIIB(20-134)-hFc variant with R64K substitution (protein) GRGEAETRECIYYNANWELERTNQSGLERCEGEQDKRLHCYASWKNSSGTIELVKKGCWLDDFNCYDRQECVATEENPQVYFCCCEGNFCNERFTHLPEAGGPEVTYEPPPTAPTGGGTHTCPPCPAPELLGGPSVFLFPPKPKDTLMISRTPEVTCVVVDVSHEDPEVKFNWYVDGVEVHNAKTKPREEQYNSTYRVVSVLTVLHQDWLNGKEYKCKVSNKALPVPIEKTISKAKGQPREPQVYTLPPSREEMTKNQVSLTCLVKGFYPSDIAVEWESNGQPENNYKTTPPVLDSDGSFFLYSKLTVDKSRWQQGNVFSCSVMHEALHNHYTQKSLSLSPGK | –
– | 0.00018 | 0.000417 | 5.02e+06 | ActRIIB(P129S, P130R 20-134)-hFc: ActRIIB(20-134)-hFc variant with P129S and P130R substitutions (protein) GRGEAETRECIYYNANWELERTNQSGLERCEGEQDKRLHCYASWRNSSGTIELVKKGCWLDDFNCYDRQECVATEENPQVYFCCCEGNFCNERFTHLPEAGGPEVTYEPSRTAPTGGGTHTCPPCPAPELLGGPSVFLFPPKPKDTLMISRTPEVTCVVVDVSHEDPEVKFNWYVDGVEVHNAKTKPREEQYNSTYRVVSVLTVLHQDWLNGKEYKCKVSNKALPVPIEKTISKAKGQPREPQVYTLPPSREEMTKNQVSLTCLVKGFYPSDIAVEWESNGQPENNYKTTPPVLDSDGSFFLYSKLTVDKSRWQQGNVFSCSVMHEALHNHYTQKSLSLSPGK | –
0.000274 | 0.0009 | – | – | ActRIIB(L79E 20-134)-hFc: GDF trap form with a glutamate rather than an aspartate at position 79, human Fc fusion (protein) GRGEAETRECIYYNANWELERTNQSGLERCEGEQDKRLHCYASWRNSSGTIELVKKGCWEDDFNCYDRQECVATEENPQVYFCCCEGNFCNERFTHLPEAGGPEVTYEPPPTAPTGGGTHTCPPCPAPELLGGPSVFLFPPKPKDTLMISRTPEVTCVVVDVSHEDPEVKFNWYVDGVEVHNAKTKPREEQYNSTYRVVSVLTVLHQDWLNGKEYKCKVSNKALPVPIEKTISKAKGQPREPQVYTLPPSREEMTKNQVSLTCLVKGFYPSDIAVEWESNGQPENNYKTTPPVLDSDGSFFLYSKLTVDKSRWQQGNVFSCSVMHEALHNHYTQKSLSLSPGK | GDF11 binding, in words (GDF11 [2]): retains; myostatin binding, in words (GDF8): retains; binding to activin A, in words (Activin A [3]): markedly decreased (non-quantifiable); KD (M), Activin A (Activin A [3]): Low binding; inhibition of GDF-11 activity, in words (GDF11 [4]): almost wild-type; inhibition of activin A activity, in words (Activin A [5]): substantial loss
– | 0.000209 | 0.000628 | 7.46e+06 | ActRIIB(R64K 20-129)-hFc: ActRIIB-hFc variant, residues 20-129, R64K substitution (protein) GRGEAETRECIYYNANWELERTNQSGLERCEGEQDKRLHCYASWKNSSGTIELVKKGCWLDDFNCYDRQECVATEENPQVYFCCCEGNFCNERFTHLPEAGGPEVTYEPPGGGTHTCPPCPAPELLGGPSVFLFPPKPKDTLMISRTPEVTCVVVDVSHEDPEVKFNWYVDGVEVHNAKTKPREEQYNSTYRVVSVLTVLHQDWLNGKEYKCKVSNKALPVPIEKTISKAKGQPREPQVYTLPPSREEMTKNQVSLTCLVKGFYPSDIAVEWESNGQPENNYKTTPPVLDSDGSFFLYSKLTVDKSRWQQGNVFSCSVMHEALHNHYTQKSLSLSPGK | –

Further lines, the molecule ahead of its results:

Molecule | Koff (1/s), GDF11 (GDF11 [2]) [s⁻¹] | Koff (1/s), GDF8 (GDF8) [s⁻¹] | Koff (1/s), Activin A (Activin A [3]) [s⁻¹] | Kon (1/Ms), Activin A (Activin A [3]) [M⁻¹ s⁻¹] | further results
O=C1CCC(N2C(=O)c3ccccc3C2=O)C(=O)N1 (stereo not shown) [thalidomide] | – | – | – | – | spleen response rate [1]: < 20%
Nc1cccc2c1CN(C1CCC(=O)NC1=O)C2=O (stereo not shown) [lenalidomide] | – | – | – | – | spleen response rate [1]: 33%
NC(=O)NO [HC, Hydroxycarbamide] | – | – | – | – | patients with reductions in spleen size from 25%-50% ([1]; Martinez-Trillos et al. (2010)): up to 35%
Nc1nc(Cl)nc2c1ncn2[C@H]1C[C@H](O)[C@@H](CO)O1 [cladribine] | – | – | – | – | spleen response rate [1]: up to 50%
ActRIIB(K74A 20-134)-hFc: ActRIIB(20-134)-hFc variant with K74A substitution (protein) GRGEAETRECIYYNANWELERTNQSGLERCEGEQDKRLHCYASWRNSSGTIELVAKGCWLDDFNCYDRQECVATEENPQVYFCCCEGNFCNERFTHLPEAGGPEVTYEPPPTAPTGGGTHTCPPCPAPELLGGPSVFLFPPKPKDTLMISRTPEVTCVVVDVSHEDPEVKFNWYVDGVEVHNAKTKPREEQYNSTYRVVSVLTVLHQDWLNGKEYKCKVSNKALPVPIEKTISKAKGQPREPQVYTLPPSREEMTKNQVSLTCLVKGFYPSDIAVEWESNGQPENNYKTTPPVLDSDGSFFLYSKLTVDKSRWQQGNVFSCSVMHEALHNHYTQKSLSLSPGK | – | 2.03e-05 | – | – | –
ActRIIB(A24N 20-134)-hFc: ActRIIB(20-134)-hFc variant with A24N substitution (protein) GRGENETRECIYYNANWELERTNQSGLERCEGEQDKRLHCYASWRNSSGTIELVKKGCWLDDFNCYDRQECVATEENPQVYFCCCEGNFCNERFTHLPEAGGPEVTYEPPPTAPTGGGTHTCPPCPAPELLGGPSVFLFPPKPKDTLMISRTPEVTCVVVDVSHEDPEVKFNWYVDGVEVHNAKTKPREEQYNSTYRVVSVLTVLHQDWLNGKEYKCKVSNKALPVPIEKTISKAKGQPREPQVYTLPPSREEMTKNQVSLTCLVKGFYPSDIAVEWESNGQPENNYKTTPPVLDSDGSFFLYSKLTVDKSRWQQGNVFSCSVMHEALHNHYTQKSLSLSPGK | 6.35e-05 | – | 0.000346 | 3.34e+06 | –
